Drawing on PMC4520625, this text covers dH for 1 substance.

Assay [1] deals with full-length human galectin-3 (human) (UniProt P17931). Kind of assay: ITC. Background: In ITC the heat of successive injections is recorded.
Assay [2] addresses galectin-3 carbohydrate recognition domain (CRD) obtained by proteolytic truncation (human). Kind of assay: ITC.

Chain of full-length human galectin-3 (human) (P17931 whole entry, the tested form may be a part): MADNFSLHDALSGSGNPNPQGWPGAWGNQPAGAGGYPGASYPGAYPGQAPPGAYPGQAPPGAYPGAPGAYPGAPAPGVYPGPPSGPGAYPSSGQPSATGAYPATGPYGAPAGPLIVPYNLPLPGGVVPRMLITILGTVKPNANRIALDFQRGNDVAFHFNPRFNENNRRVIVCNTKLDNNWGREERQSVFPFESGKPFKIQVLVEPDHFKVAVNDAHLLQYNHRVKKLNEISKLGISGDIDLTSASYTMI

“MUC1-Ser5 glycopeptide carrying the TF antigen”: the results for the dH in assay [1] and in assay [2] were -1.33 kcal/mol and -4.11 kcal/mol, respectively.
